The values below come from article PMC3031960 (Journal of immunology (Baltimore, Md. : 1950), 2010).

The experiment deals with T1, pJAK2(1001–1013).
T1 peptide: {K(Palm)}-LPQDKE[pY]YKVKEP
The experiment in a line: ELISA.

Numbered stars: 1 amine (or outer) side, 2 acyl side, 3 side chain; on linkers, the order of the positions; unused ones are H or OH. Square brackets hold non-standard residues; d marks the D form. Ends that are not written are not given here. K(Palm) = CCCCCCCCCCCCCCCC(=O)NCCCC[C@H](N[*:1])C(=O)[*:2]; pY = N[C@@H](Cc1ccc(OP(=O)(O)O)cc1)C(=O)O

On to {K(Palm)}-DTHFRTFRSHSDYRRI [SOCS1-KIR], for which the binding result is “binds”.

As to {K(Palm)}-LRLKTFSSKSEYQLVV [SOCS3-KIR], the binding result was “binds”.
